The values below are quoted from earlier work in article PMC3749136.

The term Kd denotes the equilibrium constant for the complex coming apart.

In this data set the target is EGF-R pY1092 peptide pY1092 peptide (Homo sapiens) (UniProt P00533). The following applies: cited from earlier work.

Sequence of SOCS4 SH2 (Q8WXH5 283-384): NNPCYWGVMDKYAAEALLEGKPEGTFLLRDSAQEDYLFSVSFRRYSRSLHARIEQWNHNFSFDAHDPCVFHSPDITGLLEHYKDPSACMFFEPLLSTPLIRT

As for SOCS4 SH2 (from UniProt Q8WXH5), the Kd was 500 nM.
